The target of this experiment is rabies virus glycoprotein (G) (rabies virus (strain CVS-27)) (UniProt O92284). Description: cryo-electron tomography.

“rabies virus glycoprotein (G) (from UniProt O92284 20-524) (natural protein)”: the stoichiometry N (commonly the number of molecules, sites or subunits per partner or assembly) turned out to be 3.

Values taken from PMC11437398.
